Test results reported in paper PMC3718739 (PLoS ONE, 2013).

Molecular target: ARPC4-His6x (human, UniProt P59998 1-168)
Assay: far-Western, overlay or dot blot
Conditions: both partners purified

B1: GST-Rv1626 (natural protein)
chain: MTGPTTDADAAVPRRVLIAEDEALIRMDLAEMLREEGYEIVGEAGDGQEAVELAELHKPDLVIMDVKMPRRDGIDAASEIASKRIAPIVVLTAFSQRDLVERARDAGAMAYLVKPFSISDLIPAIELAVSRFREITALEGEVATLSERLETRKLVERAKGLLQTKHGMTEPDAFKWIQRAAMDRRTTMKRVAEVVLETLGTPKDT
notes: also called Rv1626-pGEX4T3nn; not shown: GST, N-terminal, kept
B1: binds.
